The test deals with human fibronectin purified from a human plasma fraction on Gelatin Sepharose (human) (UniProt P02751).

In turn, “D1-D4 (709-886) polypeptide of the fibronectin binding protein of Staphylococcus aureus J2385, expressed from pBROC 520 in E. coli BL21 (DE3)” displayed a % Adherence Inhibition of S. aureus 8325.4 to fibronectin-coated PMMA coverslips (at 100 µg/ml D1-D4 (709-886)) of 97.5% and a % Adherence Inhibition of S. aureus J2385 to fibronectin-coated PMMA coverslips (at 100 µg/ml D1-D4 (709-886)) of 78.4%.

These data come from patent US6054572.
